The results in this text go back to US20120276537.

This series deals with ZFNRosa (Rosa26-specific zinc finger nuclease pair) (synthetic construct). In words: cell_activity. The note with it: mouse zygote mRNA microinjection; 13 of 58 pups lost XbaI site; ZFN pair, half-sites of the monomers not stated; homologous recombination also seen (pup 22 …).

“TGCAACTCCAGTCTTTCTAGAAGATGGGCGGGAGTC (double strand) [Rosa26 intron 1 ZFN target site]”: the activity (% of pups with NHEJ XbaI loss) amounted to 22.
